The text below walks through data of US20180117171A1, “IMMUNOCONJUGATES FOR PROGRAMMING OR REPROGRAMMING OF CELLS” (President and Fellows of Harvard College, priority 2015, published 2018).

Data set [1] deals with antigen specific Th17 T cells. The data set is described as follows: Th17 ELISpot of splenocytes challenged with MOG. It counts as in vivo. Conditions: splenocytes of treated mice with EAE induced, MOG challenge. An excerpt: To further explore the mechanism for tolerance induction in EAE animals treated with bolus immunoconjugate, T cell analyses (ELISpot and passive EAE assays) were completed in mice that received the immunoconjugate or control therapies (FIG. 36A-C). Splenocytes from mice treated with MOG alone or Dex-MOG with EAE induced were challenged with MOG to quantitate antigen specific elaboration of IL-17.

The test system of data set [2] is CD8+ T cells from OT-I mice. In words: OT-I: DC co-culture, CFSE T cell proliferation. The format is cell-based, mouse. The following applies: dexamethasone-SIINFEKL 1.0 μM; ovalbumin 0.2 μM. As to the method:
Cytotoxic T-lymphocytes (CTLs) were purified using magnetic beads (Miltenyi Biotec) from the spleens of the T cell receptor (TCR) transgenic OT-I mice (Jackson Laboratories) following the manufacturer's protocol. OT-I mice express a transgenic T cell receptor that recognizes ovalbumin residues 257-264 in the context of H2Kb. The CTLs were cultured with a 1:1 ratio with BMDC for 3 days at 37° C. in R10 media. […] The cells were washed two times before culturing with the T cells. Dexamethasone-TRP-2 was made following the same solid phase method as described above (Peptide synthesizer: CS Bio, DIPEA, Piperidine, TFA, and NMP: Advanced ChemTech, DCM: Sigma, amino acids and resin: Peptides International, dexamethasone hemisuccinate: Steraloids). Three days later, the cells were harvested and analyzed by flow cytometry using the BD LSR II Fortessa. The plots for flow cytometry were obtained using FCS Express.
Carboxyfluorescein succinimidyl ester (CFSE) labeled CD8+ T cells from TCR transgenic OT-I mice were cultured with BMDC for 3 days. […] Three days later, the cells were analyzed by flow cytometry.

The test system of data set [3] is bone marrow derived dendritic cells (BMDC). In words: BMDC presentation of […] from CpG-OVA conjugate (flow cytometry). The format is cell-based. The following applies: 18 hours; compared to unconjugated CpG and OVA. As to the method: CpG-OVA conjugate was cultured with bone marrow derived dendritic cells (BMDC) in vitro for 18 hours. BMDC presentation of […] was analyzed using flow cytometry and percentage of CD11c+ DCs presenting the […] peptide on the MHC-I molecule was quantified.
Background: In flow cytometry, cells or beads pass a laser one at a time.

Data set [4] can be described thus: release of conjugate from the MPS scaffold. It counts as physicochemical. As to the method: FIG. 48 is a line graph showing the evaluation of the release kinetics of the GnRH-OVA conjugate from the MPS scaffold. The conjugate was loaded into the MPS scaffold for 8 hours at room temperature (RT).
C57bl/6J mice were immunized with MPS scaffold containing 1 ug GM-CSF and 100 ug OVA, 1 ug GM-CSF, 100 ug CpG and 100 ug OVA (MPS vaccine) or 1 ug GM-CSF and 100 ug OVA conjugated to 100 ug CpG (MPS conjugate vaccine). After 7 days, peripheral blood was analyzed using […] tetramer and the percentage of […] specific T cells within CD3+CD8+ T cells was quantified. MPS conjugate vaccine increased the presence of […] specific CD8+ T cells by 2 fold compared with the MPS vaccine (FIG. 40, bottom).

In the case of “MEVGWYRSPFSRVVHLYRNGK [MOG alone, myelin oligodendrocyte glycoprotein residues 35-55, reference compound]”, in data set [1], the “IL-17 spot forming cells” value was 230±10 spot forming cells per million.

B1: ovalbumin: model antigen protein (protein, UniProt P01012 2-386, looked up)
Ovalbumin: GSIGAASMEFCFDVFKELKVHHANENIFYCPIAIMSALAMVYLGAKDSTRTQINKVVRFDKLPGFGDSIEAQCGTSVNVHSSLRDILNQITKPNDVYSFSLASRLYAEERYPILPEYLQCVKELYRGGLEPINFQTAADQARELINSWVESQTNGIIRNVLQPSSVDSQTAMVLVNAIVFKGLWEKAFKDEDTQAMPFRVTEQESKPVQMMYQIGLFRVASMASEKMKILELPFASGTMSMLVLLPDEVSGLEQLESIINFEKLTEWTSSNVMEERKIKVYLPRMKMEEKYNLTSVLMAMGITDVFSSSANLSGISSAESLKISQAVHAAHAEINEAGREVVGSAEAGVDAASVSEEFRADHPFLFCIKHIATNAVLFFGRCVSP
On to B1, for which the “OT-I T cell proliferation, BMDC pretreated with antigen” value in data set [2] is reported as “initiated a stronger proliferative response”.

B2: CpG-OVA conjugate: OVA protein linked through maleimide to reduced thiol-CpG (conjugate, UniProt P01012 2-386, looked up)
Ovalbumin: GSIGAASMEFCFDVFKELKVHHANENIFYCPIAIMSALAMVYLGAKDSTRTQINKVVRFDKLPGFGDSIEAQCGTSVNVHSSLRDILNQITKPNDVYSFSLASRLYAEERYPILPEYLQCVKELYRGGLEPINFQTAADQARELINSWVESQTNGIIRNVLQPSSVDSQTAMVLVNAIVFKGLWEKAFKDEDTQAMPFRVTEQESKPVQMMYQIGLFRVASMASEKMKILELPFASGTMSMLVLLPDEVSGLEQLESIINFEKLTEWTSSNVMEERKIKVYLPRMKMEEKYNLTSVLMAMGITDVFSSSANLSGISSAESLKISQAVHAAHAEINEAGREVVGSAEAGVDAASVSEEFRADHPFLFCIKHIATNAVLFFGRCVSP
modifications: CpG oligonucleotide via maleimide linker
As to B2, the “CD11c+ DCs presenting SIINFEKL on MHC-I” value in data set [3] was “enhanced presentation”. In data set [4], the “release from the MPS scaffold” value was “released in a sustained manner followed by a burst release”.
